The series is described as follows: self-splicing fitness, log relative to wild type (ln ratio); higher = more splicing; Tetrahymena group I intron in knt gene, E. coli kanamycin selection, DiMSum; sequences stand for … in CUCUCU…GGAGGGAAAAGUUAUCAGGCAUGCACCUGGUAGCUAGUCUUUAAACCAAUAGAUUGCAUCGGUUUAAAAGGCAAGACCGUCAAAUUGCGGGAAAGGGGUCAACAGCCGUUCAGUACCAAGUCUCAGGGGAAACUUUGAGAUGGCCUUGCAAAGGGUAUGGUAAUAAGCUGACGGACAUGGUCCUAACCACGCAGCCAAGUCCUAAGUCAACAGAUCUUCUGUUGAUAUGGAUGCAGUUCACAGACUAAAUGUCGGUCGGGGAAGAUGUAUUCUUCUCAUAAGAUAUAGUCGGACCUCUCCUUAAUGGGAGCUAGCGGAUGAAGUGAUGCAACACUGGAGCCGCUGGGAACUAAUUUGUAUGCGAAAGUAUAUUGAUUAGUUUUGGAGUACUCGUGGUCG
Put shortly: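 Six replicate transformations of E. coli BL21(DE3) with a pET-22b(+) library were grown overnight at 37°C or 30°C. The library randomised all eight P1ex-region intron nucleotides, the intron lying in the knt kanamycin-resistance gene, and plates were LB agar with or without 25 μg/mL kanamycin plus 100 μg/mL carbenicillin, 50 μM IPTG and 0.2% rhamnose. Pooled colonies were amplicon-sequenced on an Illumina HiSeq 2500, and fitness is the DiMSum error-weighted combination of wild-type-normalised replicate fold changes, kanamycin versus none.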

± gives the uncertainty stated by the source.

Turning to GGGUAGCAAUAUUACGGUGU, the “self-splicing fitness (ln)” value is -1.09 ± 0.095 (30 °C) and -0.365 ± 0.12 (37 °C).
Regarding UUGGAGCAAUAUUACGAGUC, the “self-splicing fitness (ln)” value (37 °C) was -3.03 ± 0.43.
UUAAAGCAAUAUUACGGCCC: the “self-splicing fitness (ln)” value by setting is: (30 °C) -1.67 ± 0.17; (37 °C) 0.305 ± 0.23.
On the same counts, the results for CAGGAGCAAUAUUACGAGCC are -2.71 ± 0.29 and -2.44 ± 0.49.
In the same order, the values of AGGUAGCAAUAUUACGUUAA are -2.881 ± 0.025 and -1.91 ± 0.037.
Take AUGUAGCAAUAUUACGCUAU: the “self-splicing fitness (ln)” value by setting is: (30 °C) -3.81 ± 0.23; (37 °C) -2.6 ± 0.23.
As to GCACAGCAAUAUUACGACAU, the “self-splicing fitness (ln)” value (30 °C) is -0.894 ± 0.011 and the “self-splicing fitness (ln)” value (37 °C) was -0.217 ± 0.032.
For the sequence CAAGAGCAAUAUUACGGCGU, the “self-splicing fitness (ln)” value by setting is: (30 °C) -3.47 ± 0.34; (37 °C) -1.92 ± 0.21.
Regarding CAAUAGCAAUAUUACGCCAU, the “self-splicing fitness (ln)” value (30 °C) is -3.21 ± 0.34 and the “self-splicing fitness (ln)” value (37 °C) was -2.43 ± 0.26.
On the same counts, the results for UGUUAGCAAUAUUACGCACU are -0.724 ± 0.1 and -0.553 ± 0.12.
On the same counts, the results for ACGUAGCAAUAUUACGUGGG are -3.6 ± 0.16 and -3.07 ± 0.18.
As to AUGAAGCAAUAUUACGUAGA, the “self-splicing fitness (ln)” value is -2.86 ± 0.18 (30 °C) and -1.84 ± 0.19 (37 °C).
In the same order, the values of AAGUAGCAAUAUUACGGCGG are -2.56 ± 0.17 and -0.842 ± 0.15.
Regarding GGCUAGCAAUAUUACGAAUA, the “self-splicing fitness (ln)” value (30 °C) is -0.326 ± 0.37 and the “self-splicing fitness (ln)” value (37 °C) is -1.7 ± 0.28.
In the same order, the values of UACAAGCAAUAUUACGCUAG are -2.16 ± 0.11 and -1.13 ± 0.11.
With CUUUAGCAAUAUUACGUAGC, the “self-splicing fitness (ln)” value (37 °C) was -1.6 ± 0.49.
CCCGAGCAAUAUUACGACUG: the “self-splicing fitness (ln)” value is, setting by setting: (30 °C) -4.27 ± 0.22; (37 °C) -2.56 ± 0.2.
On the same counts, the results for UCGGAGCAAUAUUACGUGGG are -3.49 ± 0.32 and -3.22 ± 0.28.
On the same counts, the results for UAAAAGCAAUAUUACGGCUA are 0.159 ± 0.073 and -0.0882 ± 0.084.
On the same counts, the results for AACUAGCAAUAUUACGACGU are -0.165 ± 0.069 and 0.653 ± 0.1.
In the case of AGGCAGCAAUAUUACGCGUA, the “self-splicing fitness (ln)” value (30 °C) was -0.695 ± 0.09 and the “self-splicing fitness (ln)” value (37 °C) is -0.127 ± 0.095.
Take CAAUAGCAAUAUUACGGGGC: the “self-splicing fitness (ln)” value was -2.73 ± 0.22 (30 °C) and -2.45 ± 0.23 (37 °C).
For UGUUAGCAAUAUUACGGGGC, the “self-splicing fitness (ln)” value (30 °C) was -3.37 ± 0.34 and the “self-splicing fitness (ln)” value (37 °C) was -3.32 ± 0.46.
On the same counts, the results for GCUCAGCAAUAUUACGGGAA are -0.173 ± 0.099 and 0.252 ± 0.16.
On the same counts, the results for UGCCAGCAAUAUUACGUCGA are -1.17 ± 0.088 and -0.949 ± 0.11.
As to CCUAAGCAAUAUUACGUUUA, the “self-splicing fitness (ln)” value runs as follows: (30 °C) -3.45 ± 0.18; (37 °C) -3.14 ± 0.2.
UCAAAGCAAUAUUACGCCGG: the “self-splicing fitness (ln)” value (30 °C) was -0.974 ± 0.13 and the “self-splicing fitness (ln)” value (37 °C) was 0.015 ± 0.15.
For UAAUAGCAAUAUUACGUCUG, the “self-splicing fitness (ln)” value by setting is: (30 °C) -0.694 ± 0.075; (37 °C) -0.276 ± 0.089.
In the same order, the values of GUUAAGCAAUAUUACGUCAA are -1.38 ± 0.11 and -1.33 ± 0.13.
On the same counts, the results for GUUAAGCAAUAUUACGAAGC are -2.32 ± 0.41 and -1.82 ± 0.3.
With CGGUAGCAAUAUUACGGUUC, the “self-splicing fitness (ln)” value is, setting by setting: (30 °C) -2.96 ± 0.3; (37 °C) -1.93 ± 0.29.
ACUAAGCAAUAUUACGGUAU: the “self-splicing fitness (ln)” value (30 °C) was -3.24 ± 0.17 and the “self-splicing fitness (ln)” value (37 °C) was -1.73 ± 0.13.
Consider UUGAAGCAAUAUUACGACCU, for which the “self-splicing fitness (ln)” value turned out to be 0.0483 ± 0.11 (30 °C) and 0.587 ± 0.14 (37 °C).
In the same order, the values of ACGUAGCAAUAUUACGAACC are -1.44 ± 0.11 and -0.279 ± 0.15.
On the same counts, the results for AAGUAGCAAUAUUACGCUUA are -0.794 ± 0.14 and -0.587 ± 0.14.
As for GCCUAGCAAUAUUACGAGUC, the “self-splicing fitness (ln)” value is -0.636 ± 0.14 (30 °C) and -0.0225 ± 0.18 (37 °C).
With GUUGAGCAAUAUUACGUUUU, the “self-splicing fitness (ln)” value reads like this: (30 °C) -2.91 ± 0.22; (37 °C) -2.88 ± 0.3.
Turning to AAUUAGCAAUAUUACGGCGG, the “self-splicing fitness (ln)” value (30 °C) was -1.81 ± 0.11 and the “self-splicing fitness (ln)” value (37 °C) was -0.193 ± 0.13.

These data come from the supplement of paper PMC7877785.
